The values below come from patent publication US20240067748A1 (NONA BIOSCIENCES SUZHOU, published 2024).

Experiment [1] concerns the target T1, human TROP2 protein (Sino Biological, #10428-H08H) (human, UniProt P09758 27-274).
T1 construct: bought protein; also called human Trop2 protein antigen (His tag); not shown: His tag
T1 sequence (looked up): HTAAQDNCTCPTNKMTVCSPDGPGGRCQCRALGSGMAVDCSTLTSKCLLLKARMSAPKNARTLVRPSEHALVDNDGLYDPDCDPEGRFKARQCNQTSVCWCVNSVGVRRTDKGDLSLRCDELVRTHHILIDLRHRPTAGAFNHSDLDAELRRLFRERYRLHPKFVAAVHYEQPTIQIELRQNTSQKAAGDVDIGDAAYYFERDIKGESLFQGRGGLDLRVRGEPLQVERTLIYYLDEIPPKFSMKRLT
The experiment can be described thus: BLI, Octet RED96, AHC sensor. The procedure: (§1) Specifically, a human TROP2 protein (Sino Biological, #10428-H08H) or a monkey Trop2 protein (Sino Biological, #90893-C08H) was diluted to 200 nM with a PBS buffer (pH 7.4) containing 0.1% (w/w) BSA and 0.02% (v/v) tween 20, and incubated with the AHC sensor respectively. 40 nM Trop2 antibody was incubated at 30° C. for 3 min with the AHC sensor loaded with the human Trop2 protein or monkey Trop2 protein respectively. The reaction mixture was incubated at 30° C. for another 5 min in a PBS buffer (pH 7.4) containing 0.1% (v/w) BSA and 0.02% (v/v) Tween 20. The association and dissociation signals between the Trop2 antibody and the human Trop2 protein or monkey Trop2 protein were recorded by Octet Red 96 in real time. The affinity and the association and dissociation constants were determined by Octet using software.
Background: BLI is a label-free optical method that tracks binding on a fibre tip over time.

Experiment [2] addresses T2, monkey Trop2 protein (Sino Biological, #90893-C08H) (monkey, UniProt A0A2K5UE71 27-274).
T2 construct: bought protein; also called monkey Trop2 protein antigen (His tag)
T2 sequence: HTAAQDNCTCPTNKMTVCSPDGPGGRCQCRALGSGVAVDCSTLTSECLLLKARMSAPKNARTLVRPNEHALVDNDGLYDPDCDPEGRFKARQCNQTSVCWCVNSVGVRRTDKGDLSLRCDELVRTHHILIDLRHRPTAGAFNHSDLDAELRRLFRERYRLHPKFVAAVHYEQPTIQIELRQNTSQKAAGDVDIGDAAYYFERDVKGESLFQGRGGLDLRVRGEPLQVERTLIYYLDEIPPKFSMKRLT
Description: BLI, Octet RED96, AHC sensor. The procedure: as §1

The next experiment concerns the target T3, human Trop2 on cells (human, UniProt P09758 27-323).
T3 construct: whole, on cells; also called hTrop2; 293T-human Trop2 cells
T3 sequence (looked up): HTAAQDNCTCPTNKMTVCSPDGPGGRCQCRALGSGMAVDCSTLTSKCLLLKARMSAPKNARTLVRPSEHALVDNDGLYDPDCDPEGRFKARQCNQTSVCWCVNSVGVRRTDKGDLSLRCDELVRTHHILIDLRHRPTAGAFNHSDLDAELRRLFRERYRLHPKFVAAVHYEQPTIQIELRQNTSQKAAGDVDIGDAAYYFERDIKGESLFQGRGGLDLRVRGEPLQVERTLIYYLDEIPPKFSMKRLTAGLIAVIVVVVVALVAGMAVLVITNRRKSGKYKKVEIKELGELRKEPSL
Description: flow cytometry on 293T-human Trop2 cells. How it is done:
The cell density was determined, and the cells were resuspended to 1×10⁶ cells/mL in PBS. 100 μL of cell suspension was taken from each well and added to a 96 well V-bottom plate. The 96-well V-bottom plate was centrifuged at 1000 rpm for 5 min and washed once with PBS+0.5% BSA (VWR, #0332-100G). […] After 1 h, the cells were washed twice with PBS+0.5% BSA. The cells were incubated with 100 μL of Alexa Fluor 488 goat anti-human IgG (Life technologies, 1:1000, #A-11013) at 4° C. for 1 h in the dark, and washed twice with PBS+0.5% BSA. The cells were resuspended in 200 μL of PBS+0.5% BSA. The fluorescence intensity of the cells was analyzed using a FACS verse flow cytometer. All procedures were performed on ice.
Background: A flow cytometer gives signals particle by particle.

In experiment [3] the target is T2, monkey Trop2 protein (Sino Biological, …). The experiment can be described thus: BLI, Octet RED96; ratio against KD for human Trop2 protein. The procedure:
as §1

B1: PR001155 (antibody, human IgG1, kappa, V domains shown)
VH: QVQLVQSGGGVVQPGRSLRLSCAASGFTFSHYGMHWVRQAPGKGLEWVAVIWYDGIKKYYVESVKGRFTISRDNSKNTLYLQMNRLRAEDTAVYYCARDGGFGELNYYGLDVWGQGTTVTVSS
VL: DIQLTQSPSFLSASVGDRVTITCRASQGISSYLGWYQQKPGKAPKLLIYVASTLQSGVPSRFSGSGSGTEFTLTISSLQPEDFATYYCQQLNSYPYTFGQGTKLEIKR
notes: fully human IgG1/kappa; also called antibody No. (18)
For B1, in experiment [1], the Kd turned out to be 1.84 nM, the Response came to 0.406, the off-rate constant (koff) came out at 0.000144 s⁻¹ and the kon was determined as 78100 M⁻¹ s⁻¹. In experiment [2], binding was put at a Kd of 4.26 nM, the Response was found to be 0.356, the koff came out at 0.000219 s⁻¹ and the kon was 51500 M⁻¹ s⁻¹. In the experiment with human Trop2 on cells, the response was half-maximal at 2.54 nM (EC50), the “Maximum (MFI)” value was found to be 7320 MFI and the Top % was 113%. Besides, the “KD (monkey)/KD (human)” value in experiment [3] stood at 2.32.

B2: PR001160 (antibody, human IgG1, kappa, V domains shown)
VH: QVQLVESGGGVVQPGRSLRLSCEASGFTFSHYGMHWVRQAPGKGLEWVAVIWYDGIMKNYIESVKGRFTISRDNSKNTLYLQMNRLRAEDTAVYYCARDGGFGELNYYGLDVWGQGTTVTVSS
VL: DIQLTQSPSFLSASVGDRVTITCRASQGISSYLGWYQQKPGKAPKLLIYVASTLQSGVPSRFSGSGSGTEFTLTISSLQPEDFATYYCQQLNSYPYTFGQGTKLEIKR
notes: fully human IgG1/kappa; also called antibody No. (22)
In experiment [1], B2 displayed a Kd of 0.819 nM, a Response of 0.39, a koff of 9.48e-05 s⁻¹ and a kon of 116000 M⁻¹ s⁻¹. In addition, in experiment [2], the Kd is 1.82 nM, the Response worked out at 0.36, the koff turned out to be 0.000135 s⁻¹ and the kon came out at 74300 M⁻¹ s⁻¹. For the same molecule, in the experiment with human Trop2 on cells, the midpoint of the response, the EC50, lay at 1.22 nM; the “Maximum (MFI)” value was determined as 6710 MFI; the Top % was found to be 104%. The “KD (monkey)/KD (human)” value in experiment [3] is 2.22.

B3: PR001163 (antibody, human IgG1, kappa, V domains shown)
VH: QVQLVESGGDVVQPGRSLRLSCEASGFTFSHYGMHWVRQAPGKGLEWVAVVWYDGIKKYYVESVKGRFTISRDNSKNTLYLQMNRLRAEDTAVYYCARDGGFGELNYYGLDVWGQGTTVTVSS
VL: DIQLTQSPSFLSASVGDRVTITCRASQGISSYLGWYQQKPGKAPKLLIYVASTLQSGVPSRFSGSGSGTEFTLTISSLQPEDFATYYCQQLNSYPYTFGQGTKLEIKR
notes: fully human IgG1/kappa; also called antibody No. (24)
In experiment [1], B3 returned a Kd of 0.79 nM, a Response of 0.396, a koff of 8.34e-05 s⁻¹ and a kon of 106000 M⁻¹ s⁻¹. In experiment [2], this molecule showed a Kd of 1.96 nM, a Response of 0.372, a koff of 0.000134 s⁻¹ and a kon of 68400 M⁻¹ s⁻¹. In the experiment with human Trop2 on cells, the EC50 is 0.496 nM, the “Maximum (MFI)” value was 5990 MFI and the Top % was 92.4%. For the same molecule, in experiment [3], the “KD (monkey)/KD (human)” value was determined as 2.48.

B4: PR001158 (antibody, human IgG1, kappa, V domains shown)
VH: QVQLVESGGGVVQPGRSLRLSCVASGFTFSHYGMHWVRQAPGKGLEWVAVIWYDGIKKYYVESVKGRFTISRDNSKNTLNLQMNRLRAEDTAVYYCARDGGFGESNYYGLDVWGQGTTVTVSS
VL: DIQLTQSPSFLSASVGDRVTITCRASQGISSYLGWYQQKPGKAPKLLIYIASTLQSGVPSRFSGSGSGTEFTLTISSLQPEDFATYYCQQLNSYPYTFGQGTKLEIKR
notes: fully human IgG1/kappa; also called antibody No. (20)
For the molecule B4, in experiment [1], the Kd turned out to be 0.155 nM, the Response amounted to 0.433, the off-rate (koff) is 2.05e-05 s⁻¹ and the kon was found to be 132000 M⁻¹ s⁻¹. Also, in experiment [2], binding was characterised by a dissociation constant (Kd) of 0.708 nM, the Response worked out at 0.406, the koff is 6.23e-05 s⁻¹ and the kon was found to be 87900 M⁻¹ s⁻¹. Further, in the experiment with human Trop2 on cells, the EC50 was 1.26 nM, the “Maximum (MFI)” value worked out at 6950 MFI and the Top % was 107%. The “KD (monkey)/KD (human)” value in experiment [3] was determined as 4.56.

B5: PR001156 (antibody, human IgG1, kappa, V domains shown)
VH: QVQLVESGGGVVQPGRSLRLSCEGSGFTFSHYGMHWVRQAPGKGLEWVAVIWYDGIKKNYVDSLKGRFTISRDNSKNTLYLQMNSLRAEDTAVYYCARDGGFGELNYYGMDVWGQGTTVTVSS
VL: DIQLTQSPSFLSASVGDRVTITCRASQGISSYLGWYQQKPGKAPKLLIYIASTLQSGVPSRFSGSGSGTEFTLTISSLQPEDFATYYCQQLNSYPYTFGQGTKLEIKR
notes: fully human IgG1/kappa; also called antibody No. (19)
In experiment [1], B5 yielded a Kd of 0.0916 nM, a Response of 0.354, a koff of 1.67e-05 s⁻¹ and a kon of 183000 M⁻¹ s⁻¹. In experiment [2], this molecule registered a Kd of 0.536 nM, a Response of 0.349, a koff of 6.15e-05 s⁻¹ and an association rate constant (kon) of 115000 M⁻¹ s⁻¹. Also, in the experiment with human Trop2 on cells, a half-maximal response (EC50) required 1.67 nM, the “Maximum (MFI)” value worked out at 7270 MFI and the Top % is 112%. Further, the “KD (monkey)/KD (human)” value in experiment [3] was 5.85.

B6: PR001134 (antibody, human IgG1, kappa, V domains shown)
VH: QVQLVESGGGVVQPGRSLRVSCIASGFFFSSYGMHWVRQAPGKGLEWVAVIWYDGSNEDYVDSVKGRFTISRDNSKNTLYLQMNSLRGEDTAMYYCARGGYNSGWWAFDIWGQGTMVTVSS
VL: DIQMTQSPSSLSASVGDRVTITCRASQGISHFLAWYQQKPGKVPKLLIYAASTLQSGVPSRFSGSGSGTDFTLTISSLQPEDVATYYCQKFNSAPLTFGGGTKVEIKR
notes: fully human IgG1/kappa; also called antibody No. (6)
In experiment [1], B6 yielded a Kd of 5.42 nM, a Response of 0.354, a koff of 0.000451 s⁻¹ and a kon of 83100 M⁻¹ s⁻¹. In experiment [2], this molecule displayed a Kd of 9.33 nM, a Response of 0.335, a koff of 0.000512 s⁻¹ and a kon of 54900 M⁻¹ s⁻¹. For the same molecule, in the experiment with human Trop2 on cells, the EC50 worked out at 0.653 nM, the “Maximum (MFI)” value is 6040 MFI and the Top % was 93.2%. Besides, in experiment [3], the “KD (monkey)/KD (human)” value was determined as 1.72.

B7: PR001147 (antibody, human IgG1, kappa, V domains shown)
VH: QVNLVESGGGVVQPGRSLKLSCAASGFTFSSYGMHWVRQAPGKGLEWVAFIWSDGTNRYYPESVKGRFTISRDDSRNTVSLQMNSLRPEDTAVYYCARDGWGTYGEYFQHWGQGTLVTVSS
VL: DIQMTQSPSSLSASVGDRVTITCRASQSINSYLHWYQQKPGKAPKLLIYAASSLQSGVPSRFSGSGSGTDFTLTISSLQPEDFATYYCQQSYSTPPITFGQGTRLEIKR
notes: fully human IgG1/kappa; also called antibody No. (12)
Regarding B7, in experiment [1], the Kd stood at 0.498 nM, the Response came to 0.349, the koff is 4.23e-05 s⁻¹ and the kon is 85000 M⁻¹ s⁻¹. In addition, in experiment [2], the Kd came out at 1.92 nM, the Response was determined as 0.341, the koff was found to be 0.000117 s⁻¹ and the kon was 60900 M⁻¹ s⁻¹. Also, in the experiment with human Trop2 on cells, the response was half-maximal at 1.31 nM (EC50), the “Maximum (MFI)” value amounted to 7420 MFI and the Top % is 115%. Moreover, in experiment [3], the “KD (monkey)/KD (human)” value came to 3.86.

B8: PR001145 (antibody, human IgG1, kappa, V domains shown)
VH: QVQLVESGGGVVQPGRSLRLSCAASGFTFSSFGMQWVRQGPGKGLEWVAIMWFDGSNKYYVDSVKGRFTISRDNSKNTLYLQMNSLRAEDTAVYYCARLDFSGWPLIDYWGQGTLVTVSS
VL: not shown
notes: fully human IgG1/kappa; also called antibody No. (11)
In the case of B8, in experiment [1], binding was characterised by a dissociation constant (Kd) of 14.7 nM, the Response is 0.29, the koff came out at 0.00135 s⁻¹ and the kon was found to be 91900 M⁻¹ s⁻¹. In experiment [2], this molecule yielded a Kd of 19.1 nM, a Response of 0.277, a koff of 0.00134 s⁻¹ and a kon of 70100 M⁻¹ s⁻¹. Moreover, in the experiment with human Trop2 on cells, the EC50 turned out to be 0.48 nM, the “Maximum (MFI)” value worked out at 7030 MFI and the Top % was found to be 108%. The “KD (monkey)/KD (human)” value in experiment [3] is 1.3.

What is called Kd is the free concentration of one partner at which half of the binding sites on the other are occupied at equilibrium, for simple one-to-one binding. One may read the koff as the first-order rate constant of dissociation. For orientation: kon means the rate constant with which the complex forms. What is called EC50 is the concentration giving half of the maximal effect.
